{
  "source": "paper PMC12816604",
  "about": "“Structural basis of double-stranded RNA recognition by the J2 monoclonal antibody”",
  "assay_in_all_cases": "BLI; 100 mM KCl; BLI: 25 mM Tris-HCl pH 7.5, 2 mM MgCl2, KCl 100 mM (6-20 bp and mutants), 200 mM (30 bp) or 400 mM (40, 50 bp), 25 C; IgG immobilised on Protein A probes",
  "details_in_all_cases": "protein: recombinant;recombinant; tags: His8 (C-term);; chain copies: 2;2; blunt",
  "key": {"[1]": {"target": "J2 IgG light chain Y38F;J2 IgG heavy chain (HC-TEV-His8) (Mus musculus;Mus musculus, UniProt ; ;, Y38F|)", "sequence (chain, as listed by the source Y38F| | Y38F Y38F, chain 1 of 2)": "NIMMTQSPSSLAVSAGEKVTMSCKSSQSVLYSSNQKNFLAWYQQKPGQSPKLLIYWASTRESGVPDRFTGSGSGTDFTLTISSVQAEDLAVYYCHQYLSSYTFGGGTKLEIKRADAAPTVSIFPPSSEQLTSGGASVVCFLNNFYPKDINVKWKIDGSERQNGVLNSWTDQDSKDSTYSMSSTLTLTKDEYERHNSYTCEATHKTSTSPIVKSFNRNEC", "sequence (chain, as listed by the source Y38F| | Y38F Y38F, chain 2 of 2)": "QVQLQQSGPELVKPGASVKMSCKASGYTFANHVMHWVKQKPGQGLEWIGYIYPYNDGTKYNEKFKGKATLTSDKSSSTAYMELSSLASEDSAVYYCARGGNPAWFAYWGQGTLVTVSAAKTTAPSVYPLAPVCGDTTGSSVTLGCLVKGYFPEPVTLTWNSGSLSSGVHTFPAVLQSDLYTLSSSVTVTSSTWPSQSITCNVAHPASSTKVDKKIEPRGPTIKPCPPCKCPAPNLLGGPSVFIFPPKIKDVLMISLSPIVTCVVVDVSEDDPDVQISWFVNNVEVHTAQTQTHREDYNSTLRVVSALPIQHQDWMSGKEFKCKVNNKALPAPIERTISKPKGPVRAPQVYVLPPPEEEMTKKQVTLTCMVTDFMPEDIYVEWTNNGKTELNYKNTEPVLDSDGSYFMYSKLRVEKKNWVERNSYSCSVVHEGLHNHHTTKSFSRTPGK"}, "[2]": {"target": "J2 IgG heavy chain (HC-TEV-His8) Y52F;J2 IgG light chain (Mus musculus;Mus musculus, UniProt ; ;, Y52F|)", "sequence (chain, as listed by the source Y52F| | Y52F Y52F, chain 1 of 2)": "as the sequence (chain, as listed by the source Y38F| | Y38F Y38F, chain 2 of 2) above, with Y52F counted along it", "sequence (chain, as listed by the source Y52F| | Y52F Y52F, chain 2 of 2)": "as the sequence (chain, as listed by the source Y38F| | Y38F Y38F, chain 1 of 2) above, with F38Y counted along it"}, "[3]": {"target": "J2 IgG light chain Y31F;J2 IgG heavy chain (HC-TEV-His8) (Mus musculus;Mus musculus, UniProt ; ;, Y31F|)", "sequence (chain, as listed by the source Y31F| | Y31F Y31F, chain 1 of 2)": "as the sequence (chain, as listed by the source Y38F| | Y38F Y38F, chain 1 of 2) above, with Y31F, F38Y counted along it", "sequence (chain, as listed by the source Y31F| | Y31F Y31F, chain 2 of 2)": "as the sequence (chain, as listed by the source Y38F| | Y38F Y38F, chain 2 of 2) above"}, "[4]": {"target": "J2 IgG heavy chain (HC-TEV-His8) Y54A;J2 IgG light chain (Mus musculus;Mus musculus, UniProt ; ;, Y54A|)", "sequence (chain, as listed by the source Y54A| | Y54A Y54A, chain 1 of 2)": "as the sequence (chain, as listed by the source Y38F| | Y38F Y38F, chain 2 of 2) above, with Y54A counted along it", "sequence (chain, as listed by the source Y54A| | Y54A Y54A, chain 2 of 2)": "as the sequence (chain, as listed by the source Y38F| | Y38F Y38F, chain 1 of 2) above, with F38Y counted along it"}, "[5]": {"target": "J2 IgG light chain Y31A;J2 IgG heavy chain (HC-TEV-His8) (Mus musculus;Mus musculus, UniProt ; ;, Y31A|)", "sequence (chain, as listed by the source Y31A| | Y31A Y31A, chain 1 of 2)": "as the sequence (chain, as listed by the source Y38F| | Y38F Y38F, chain 1 of 2) above, with Y31A, F38Y counted along it", "sequence (chain, as listed by the source Y31A| | Y31A Y31A, chain 2 of 2)": "as the sequence (chain, as listed by the source Y38F| | Y38F Y38F, chain 2 of 2) above"}, "[6]": {"target": "J2 IgG heavy chain (HC-TEV-His8) A30P;J2 IgG light chain (Mus musculus;Mus musculus, UniProt ; ;, A30P|)", "sequence (chain, as listed by the source A30P| | A30P A30P, chain 1 of 2)": "as the sequence (chain, as listed by the source Y38F| | Y38F Y38F, chain 2 of 2) above, with A30P counted along it", "sequence (chain, as listed by the source A30P| | A30P A30P, chain 2 of 2)": "as the sequence (chain, as listed by the source Y38F| | Y38F Y38F, chain 1 of 2) above, with F38Y counted along it"}, "[7]": {"target": "J2 IgG heavy chain (HC-TEV-His8) Y54F;J2 IgG light chain (Mus musculus;Mus musculus, UniProt ; ;, Y54F|)", "sequence (chain, as listed by the source Y54F| | Y54F Y54F, chain 1 of 2)": "as the sequence (chain, as listed by the source Y38F| | Y38F Y38F, chain 2 of 2) above, with Y54F counted along it", "sequence (chain, as listed by the source Y54F| | Y54F Y54F, chain 2 of 2)": "as the sequence (chain, as listed by the source Y38F| | Y38F Y38F, chain 1 of 2) above, with F38Y counted along it"}, "[8]": {"target": "J2 IgG heavy chain (HC-TEV-His8);J2 IgG light chain (Mus musculus;Mus musculus, UniProt ; ;, |)", "sequence (chain, as listed by the source |, chain 1 of 2)": "as the sequence (chain, as listed by the source Y38F| | Y38F Y38F, chain 2 of 2) above", "sequence (chain, as listed by the source |, chain 2 of 2)": "as the sequence (chain, as listed by the source Y38F| | Y38F Y38F, chain 1 of 2) above, with F38Y counted along it"}, "[9]": {"target": "J2 IgG heavy chain (HC-TEV-His8) Y50F;J2 IgG light chain (Mus musculus;Mus musculus, UniProt ; ;, Y50F|)", "sequence (chain, as listed by the source Y50F| | Y50F Y50F, chain 1 of 2)": "as the sequence (chain, as listed by the source Y38F| | Y38F Y38F, chain 2 of 2) above, with Y50F counted along it", "sequence (chain, as listed by the source Y50F| | Y50F Y50F, chain 2 of 2)": "as the sequence (chain, as listed by the source Y38F| | Y38F Y38F, chain 1 of 2) above, with F38Y counted along it"}},
  "data": [
    {"binder": "20-bp dsRNA (dsRNA) RNA 1: GUUGUAAAGAAGGUCAAUAU RNA 2: AUAUUGACCUUCUUUACAAC", "values": [
      {"measurement": "Kd", "setting": "[1]", "result": "150 ± 20", "unit": "nM"},
      {"measurement": "Kd", "setting": "[2]", "result": 220, "unit": "nM"},
      {"measurement": "Kd", "setting": "[3]", "result": "360 ± 60", "unit": "nM"},
      {"measurement": "Kd", "setting": "[4]", "result": "300 ± 30", "unit": "nM"},
      {"measurement": "Kd", "setting": "[5]", "result": "940 ± 560", "unit": "nM"},
      {"measurement": "Kd", "setting": "[6]", "result": "120 ± 20", "unit": "nM"},
      {"measurement": "Kd", "setting": "[7]", "result": "710 ± 170", "unit": "nM"},
      {"measurement": "Kd", "setting": "[8]", "result": "120 ± 10", "unit": "nM"},
      {"measurement": "Kd", "setting": "[9]", "result": "430 ± 40", "unit": "nM"}
    ]}
  ]
}
